This is an account of results in publication PMC4573519 (PLoS ONE, 2015).

Numbering of substitutions follows the chain as printed.

T1: Fetuin (bovine serum glycoprotein), biotinylated (bovine, UniProt P12763 19-359)
T1 construct: source: bought: Sigma-Aldrich
T1 sequence: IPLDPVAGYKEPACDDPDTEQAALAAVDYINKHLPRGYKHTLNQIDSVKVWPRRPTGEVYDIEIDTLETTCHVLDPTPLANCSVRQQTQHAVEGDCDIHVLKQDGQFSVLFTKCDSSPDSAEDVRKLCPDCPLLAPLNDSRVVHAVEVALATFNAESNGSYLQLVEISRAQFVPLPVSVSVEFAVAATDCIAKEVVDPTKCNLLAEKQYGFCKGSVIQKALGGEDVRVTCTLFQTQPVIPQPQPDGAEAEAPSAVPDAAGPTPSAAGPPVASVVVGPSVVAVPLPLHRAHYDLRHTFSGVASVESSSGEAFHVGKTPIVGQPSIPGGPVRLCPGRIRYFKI

T2: Asialofetuin (fetuin lacking sialic acid), biotinylated (bovine, UniProt P12763 19-359)
T2 construct: source: bought: Sigma-Aldrich
T2 sequence: T1 sequence

B1: S2(PtxB1)S4his recombinant dimer of pertussis toxin subunits S2 (PtxB1 form) and S4 (complex)
chain 1: STPGIVIPPQEQITQHGGPYGRCANKTRALTVAELRGSGDLQEYLRHVTRGWSIFALYDGTYLGGEYGGVIKDGTPGGAFDLKTTFCIMTTRNTGQPATDHYYSNVTATRLLSSTNSRLCAVFVRSGQPVIGACTSPYDGKYWSMYSRLRKMLYLIYVAGISVRVHVSKEEQYYDYEDATFETYALTGISICNPGSSLC
chain 2: DVPYVLVKTNMVVTSVAMKPYEVTPTRMLVCGIAAKLGAAASSPDAHVPFCFGKDLKRPGSSPMEVMLRAVFMQQRPLRMFLGPKQLTFEGKPALELIRMVECSGKQDCP
B2: S3S4his recombinant dimer of pertussis toxin subunits S3 and S4 (complex)
chain 1: VAPGIVIPPKALFTQQGGAYGRCPNGTRALTVAELRGNAELQTYLRQITPGWSIYGLYDGTYLGQAYGGIIKDAPPGAGFIYRETFCITTIYKTGQPAADHYYSKVTATRLLASTNSRLCAVFVRDGQSVIGACASPYEGRYRDMYDALRRLLYMIYMSGLAVRVHVSKEEQYYDYEDATFQTYALTGISLCNPAASIC
chain 2: B1 chain 2
B3: S2(PtxB2)S4his recombinant dimer of pertussis toxin subunits S2 (PtxB2 form) and S4 (complex)
chain 1: B1 chain 1 with G18S
chain 2: B1 chain 2

The first assay has as its target T1, Fetuin (bovine serum glycoprotein), …. As to the kind of experiment: BLI. To be noted: both partners purified.
Consider B1, for which the binding result is reported as “binds”.

Turning to B2, the binding result was “binds”.

Turning to B3, the binding result was “binds”.

The target of the next assay is T2, Asialofetuin (fetuin lacking sialic …). As to the kind of experiment: BLI. To be noted: both partners purified.
B1: the binding result was “binds”.

Consider B2, for which the binding result was “binds”.

With B3, the binding result is reported as “binds”.
